± gives the uncertainty stated by the source.

To fix the notation:
B1: Intersectin-1, residues 909 to 971; numbered along this chain, Q15811 (parent)
chain: QGEKVEGLQAQALYPWRAKKDNHLNFNKNDVITVLEQQDMWWFGEVQGQKGWFPKSYVKLISG

In the data set the parent is B1. Description: abundance fitness (aPCA) (normalised: wild type 0, dead -1); higher = more abundant; growth selection in yeast, the domain comes from the species named. As to conditions: Homo sapiens.
As to QGEKVEGLQAQALYPWRAKIDNHLNFNKNDVITVLEQQDMWWFGEVQGQKGWFPKSYVKLISG [K20I], the abundance fitness was -0.092 ± 0.053.

As to QGEKVEGLQAQALYPWRAKLDNHLNFNKNDVITVLEQQDMWWFGEVQGQKGWFPKSYVKLISG [K20L], the abundance fitness is -0.176 ± 0.041. As to QGEKVEGLQAQALYPWRAKPDNHLNFNKNDVITVLEQQDMWWFGEVQGQKGWFPKSYVKLISG [K20P], the abundance fitness is -0.374 ± 0.063. For QGEKVEGLQAQALYPWRAKHDNHLNFNKNDVITVLEQQDMWWFGEVQGQKGWFPKSYVKLISG [K20H] the value was -0.133 ± 0.06. As for QGEKVEGLQAQALYPWRAKTDNHLNFNKNDVITVLEQQDMWWFGEVQGQKGWFPKSYVKLISG [K20T], the abundance fitness is -0.079 ± 0.051.

In the case of QGEKVEGLQAQALYPWRAKKDNFLNFNKNDVITVLEQQDMWWFGEVQGQKGWFPKSYVKLISG [H23F], the abundance fitness was -0.123 ± 0.26. The value for QGEKVEGLQAQALYPWRAKKDNMLNFNKNDVITVLEQQDMWWFGEVQGQKGWFPKSYVKLISG [H23M] was -0.231 ± 0.16. Regarding QGEKVEGLQAQALYPWRAKKDNRLNFNKNDVITVLEQQDMWWFGEVQGQKGWFPKSYVKLISG [H23R], the abundance fitness is -0.254 ± 0.11. The value for QGEKVEGLQAQALYPWRAKKDNLLNFNKNDVITVLEQQDMWWFGEVQGQKGWFPKSYVKLISG [H23L] was -0.114 ± 0.085; that for QGEKVEGLQAQALYPWRAKKDNPLNFNKNDVITVLEQQDMWWFGEVQGQKGWFPKSYVKLISG [H23P] was -0.596 ± 0.18. For QGEKVEGLQAQALYPWRAKKDNWLNFNKNDVITVLEQQDMWWFGEVQGQKGWFPKSYVKLISG [H23W] the value was -0.04 ± 0.2; for QGEKVEGLQAQALYPWRAKKDNVLNFNKNDVITVLEQQDMWWFGEVQGQKGWFPKSYVKLISG [H23V], -0.172 ± 0.1; for QGEKVEGLQAQALYPWRAKKDNALNFNKNDVITVLEQQDMWWFGEVQGQKGWFPKSYVKLISG [H23A], -0.245 ± 0.091. The value for QGEKVEGLQAQALYPWRAKKDNGLNFNKNDVITVLEQQDMWWFGEVQGQKGWFPKSYVKLISG [H23G] was -0.164 ± 0.11; that for QGEKVEGLQAQALYPWRAKKDNILNFNKNDVITVLEQQDMWWFGEVQGQKGWFPKSYVKLISG [H23I] was -0.551 ± 0.35. On to QGEKVEGLQAQALYPWRAKKDNCLNFNKNDVITVLEQQDMWWFGEVQGQKGWFPKSYVKLISG [H23C], for which the abundance fitness was -0.492 ± 0.22. In the case of QGEKVEGLQAQALYPWRAKKDNQLNFNKNDVITVLEQQDMWWFGEVQGQKGWFPKSYVKLISG [H23Q], the abundance fitness is -0.135 ± 0.31. Take QGEKVEGLQAQALYPWRAKKDNTLNFNKNDVITVLEQQDMWWFGEVQGQKGWFPKSYVKLISG [H23T]: the abundance fitness is -0.207 ± 0.14. With QGEKVEGLQAQALYPWRAKKDNYLNFNKNDVITVLEQQDMWWFGEVQGQKGWFPKSYVKLISG [H23Y], the abundance fitness is -0.171 ± 0.13. For QGEKVEGLQAQALYPWRAKKDNSLNFNKNDVITVLEQQDMWWFGEVQGQKGWFPKSYVKLISG [H23S] the value was -0.316 ± 0.14; for QGEKVEGLQAQALYPWRATKDNHLNFNKNDVITVLEQQDMWWFGEVQGQKGWFPKSYVKLISG [K19T], 0.033 ± 0.054.

Turning to QGEKVEGLQAQALYPWRAAKDNHLNFNKNDVITVLEQQDMWWFGEVQGQKGWFPKSYVKLISG [K19A], the abundance fitness is -0.018 ± 0.052.

On to QGEKVEGLQAQALYPWRAYKDNHLNFNKNDVITVLEQQDMWWFGEVQGQKGWFPKSYVKLISG [K19Y], for which the abundance fitness was -0.078 ± 0.056.

As to QGEKVEGLQAQALYPWRAFKDNHLNFNKNDVITVLEQQDMWWFGEVQGQKGWFPKSYVKLISG [K19F], the abundance fitness was 0.032 ± 0.051. For QGEKVEGLQAQALYPWRACKDNHLNFNKNDVITVLEQQDMWWFGEVQGQKGWFPKSYVKLISG [K19C] the value was -0.048 ± 0.055; for QGEKVEGLQAQALYPWRAEKDNHLNFNKNDVITVLEQQDMWWFGEVQGQKGWFPKSYVKLISG [K19E], 0 ± 0.084. Turning to QGEKVEGLQAQALYPWRAIKDNHLNFNKNDVITVLEQQDMWWFGEVQGQKGWFPKSYVKLISG [K19I], the abundance fitness is -0.028 ± 0.053. The value for QGEKVEGLQAQALYPWRAPKDNHLNFNKNDVITVLEQQDMWWFGEVQGQKGWFPKSYVKLISG [K19P] was -0.139 ± 0.076; that for QGEKVEGLQAQALYPWRASKDNHLNFNKNDVITVLEQQDMWWFGEVQGQKGWFPKSYVKLISG [K19S] was 0.008 ± 0.042; that for QGEKVEGLQAQALYPWRAHKDNHLNFNKNDVITVLEQQDMWWFGEVQGQKGWFPKSYVKLISG [K19H] was -0.114 ± 0.064. For QGEKVEGLQAQALYPWRAQKDNHLNFNKNDVITVLEQQDMWWFGEVQGQKGWFPKSYVKLISG [K19Q], the abundance fitness amounted to 0.069 ± 0.082. For QGEKVEGLQAQALYPWRADKDNHLNFNKNDVITVLEQQDMWWFGEVQGQKGWFPKSYVKLISG [K19D] the value was 0.026 ± 0.058. The value for QGEKVEGLQAQALYPWRALKDNHLNFNKNDVITVLEQQDMWWFGEVQGQKGWFPKSYVKLISG [K19L] was -0.045 ± 0.045; that for QGEKVEGLQAQALYPWRAVKDNHLNFNKNDVITVLEQQDMWWFGEVQGQKGWFPKSYVKLISG [K19V] was 0.021 ± 0.043; that for QGEKVEGLQAQALYPWRANKDNHLNFNKNDVITVLEQQDMWWFGEVQGQKGWFPKSYVKLISG [K19N] was -0.055 ± 0.057. For QGEKVEGLQAQALYPWRAKKDNHMNFNKNDVITVLEQQDMWWFGEVQGQKGWFPKSYVKLISG [L24M] the value was -0.611 ± 0.17. With QGEKVEGLQAQALYPWRAKKDNHCNFNKNDVITVLEQQDMWWFGEVQGQKGWFPKSYVKLISG [L24C], the abundance fitness is -0.199 ± 0.14. Turning to QGEKVEGLQAQALYPWRAKKDNHDNFNKNDVITVLEQQDMWWFGEVQGQKGWFPKSYVKLISG [L24D], the abundance fitness is -1.26 ± 0.4. For QGEKVEGLQAQALYPWRAKKDNHFNFNKNDVITVLEQQDMWWFGEVQGQKGWFPKSYVKLISG [L24F] the value was -0.466 ± 0.27. Take QGEKVEGLQAQALYPWRAKKDNHANFNKNDVITVLEQQDMWWFGEVQGQKGWFPKSYVKLISG [L24A]: the abundance fitness was -0.436 ± 0.061. The value for QGEKVEGLQAQALYPWRAKKDNHKNFNKNDVITVLEQQDMWWFGEVQGQKGWFPKSYVKLISG [L24K] was -1.14 ± 0.33; that for QGEKVEGLQAQALYPWRAKKDNHENFNKNDVITVLEQQDMWWFGEVQGQKGWFPKSYVKLISG [L24E] was -0.591 ± 0.11; that for QGEKVEGLQAQALYPWRAKKDNHINFNKNDVITVLEQQDMWWFGEVQGQKGWFPKSYVKLISG [L24I] was -0.359 ± 0.27.
